This is an account of results in article PMC2666983.

For this data set, the target named is T1, Ci-FoxA-a (Ci-Fkh/HNF-3beta) (Ciona intestinalis, UniProt Q4H3J7 131-225).
T1 sequence: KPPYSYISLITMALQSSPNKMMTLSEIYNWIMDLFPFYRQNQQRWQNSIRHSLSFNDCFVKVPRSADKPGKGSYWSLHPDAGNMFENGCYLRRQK
Briefly: competition.

B1: 27-52 Fox (distal) (dsDNA)
DNA 1: CTACACCCATATTTGAAGACCAAA
DNA 2: TTTGGTCTTCAAATATGGGTGTAG
B1: the binding result was “binds”.
